From patent publication US20210032299A1 come the findings set out here.

Starred links: 1 amine or outer side, 2 acyl side, 3 side chain; linkers in the order of their positions; H or OH if unused. Non-standard residues stand in square brackets, D forms with d. Groups on a side chain read outwards from the residue. No end group written: not given here. *: point of attachment. C20 diacid = O=C(O)CCCCCCCCCCCCCCCCCCC(=O)*; C18 diacid = O=C(O)CCCCCCCCCCCCCCCCC(=O)*; αMePhe(2-F) = C[C@](N)(Cc1ccccc1F)C(=O)O; γGlu = O=C(O)[C@H](CCC(=O)[*:2])N[*:1]; αMeF = C[C@](N)(Cc1ccccc1)C(=O)O; 4Pal = N[C@@H](Cc1ccncc1)C(=O)O; αMeL = CC(C)C[C@](C)(N)C(=O)O; Orn = NCCC[C@H](N)C(=O)O; AEEA = NCCOCCOCC(=O)O; Aib = CC(C)(N)C(=O)O

Experiment [1] deals with T1, human glucose-dependent insulinotropic polypeptide (GIP) receptor (human), P48546.
T1 chain: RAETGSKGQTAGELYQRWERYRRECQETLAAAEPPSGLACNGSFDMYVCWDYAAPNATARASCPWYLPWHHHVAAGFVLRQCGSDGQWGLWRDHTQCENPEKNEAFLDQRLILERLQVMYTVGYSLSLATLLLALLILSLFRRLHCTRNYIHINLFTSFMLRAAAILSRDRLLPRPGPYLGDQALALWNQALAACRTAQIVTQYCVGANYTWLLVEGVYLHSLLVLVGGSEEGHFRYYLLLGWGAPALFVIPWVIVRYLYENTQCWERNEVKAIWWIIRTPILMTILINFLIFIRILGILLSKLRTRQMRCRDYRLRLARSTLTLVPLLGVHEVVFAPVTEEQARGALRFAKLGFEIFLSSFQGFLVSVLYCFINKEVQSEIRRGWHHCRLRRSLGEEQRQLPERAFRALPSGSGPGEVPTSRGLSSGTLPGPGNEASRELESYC
The experiment in a line: SPA, displacement of [125I]-GIP from hGIPR membranes, 0.1% bacitracin.

The target of experiment [2] is human glucagon receptor (human), P47871. As to the kind of experiment: SPA, displacement of [125I]-Gcg from hGcgR membranes, 0.1% bacitracin.
Experiment [3] concerns the target T2, human GLP-1 receptor (human), P43220.
T2 chain: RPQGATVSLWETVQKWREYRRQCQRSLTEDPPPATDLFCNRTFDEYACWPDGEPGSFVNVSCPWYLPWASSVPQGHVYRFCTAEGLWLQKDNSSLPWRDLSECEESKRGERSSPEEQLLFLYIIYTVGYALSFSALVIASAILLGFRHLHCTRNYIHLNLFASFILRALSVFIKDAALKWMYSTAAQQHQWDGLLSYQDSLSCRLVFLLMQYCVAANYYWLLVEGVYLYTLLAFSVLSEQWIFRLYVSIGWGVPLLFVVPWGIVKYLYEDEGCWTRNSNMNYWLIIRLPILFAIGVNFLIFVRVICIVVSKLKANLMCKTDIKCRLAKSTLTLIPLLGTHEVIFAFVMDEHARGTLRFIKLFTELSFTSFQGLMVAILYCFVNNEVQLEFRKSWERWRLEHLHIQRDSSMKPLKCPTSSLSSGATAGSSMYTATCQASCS
The experiment in a line: SPA, displacement of [125I]-GLP-1 from hGLP-1R membranes, 0.1% bacitracin.

Chain of human glucagon receptor (human), P47871 (P47871 26-477): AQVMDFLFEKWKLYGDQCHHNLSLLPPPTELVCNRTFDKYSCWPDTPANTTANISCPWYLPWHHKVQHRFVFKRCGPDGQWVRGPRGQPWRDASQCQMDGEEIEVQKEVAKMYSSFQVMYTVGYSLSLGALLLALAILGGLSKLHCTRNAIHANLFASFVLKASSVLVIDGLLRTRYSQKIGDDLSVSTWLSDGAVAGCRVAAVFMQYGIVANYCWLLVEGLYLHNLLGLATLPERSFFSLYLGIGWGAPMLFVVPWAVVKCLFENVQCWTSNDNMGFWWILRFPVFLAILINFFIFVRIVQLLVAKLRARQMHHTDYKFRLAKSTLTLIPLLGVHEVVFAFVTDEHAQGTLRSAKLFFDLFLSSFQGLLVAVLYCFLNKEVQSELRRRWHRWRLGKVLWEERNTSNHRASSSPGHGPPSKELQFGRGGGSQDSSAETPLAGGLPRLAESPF

B1: Example 4 (peptide)
peptide: Y[Aib]EGTFISDYSI[αMeL]LD[Orn]K([AEEA-AEEA-γGlu-C20 diacid])HQ[Aib]DFVE[4Pal]LLEAGPSSGAPPPS-NH2
modifications: N-terminus assumed
SMILES: CC[C@H](C)[C@H](NC(=O)[C@H](Cc1ccccc1)NC(=O)[C@@H](NC(=O)CNC(=O)[C@H](CCC(=O)O)NC(=O)C(C)(C)NC(=O)[C@@H](N)Cc1ccc(O)cc1)[C@@H](C)O)C(=O)N[C@@H](CO)C(=O)N[C@@H](CC(=O)O)C(=O)N[C@@H](Cc1ccc(O)cc1)C(=O)N[C@@H](CO)C(=O)N[C@H](C(=O)N[C@@](C)(CC(C)C)C(=O)N[C@@H](CC(C)C)C(=O)N[C@@H](CC(=O)O)C(=O)N[C@@H](CCCN)C(=O)N[C@@H](CCCCNC(=O)COCCOCCNC(=O)COCCOCCNC(=O)CC[C@H](NC(=O)CCCCCCCCCCCCCCCCCCC(=O)O)C(=O)O)C(=O)N[C@@H](Cc1c[nH]cn1)C(=O)N[C@@H](CCC(N)=O)C(=O)NC(C)(C)C(=O)N[C@@H](CC(=O)O)C(=O)N[C@@H](Cc1ccccc1)C(=O)N[C@H](C(=O)N[C@@H](CCC(=O)O)C(=O)N[C@@H](Cc1ccncc1)C(=O)N[C@@H](CC(C)C)C(=O)N[C@@H](CC(C)C)C(=O)N[C@@H](CCC(=O)O)C(=O)N[C@@H](C)C(=O)NCC(=O)N1CCC[C@H]1C(=O)N[C@@H](CO)C(=O)N[C@@H](CO)C(=O)NCC(=O)N[C@@H](C)C(=O)N1CCC[C@H]1C(=O)N1CCC[C@H]1C(=O)N1CCC[C@H]1C(=O)N[C@@H](CO)C(N)=O)C(C)C)[C@@H](C)CC
In the case of B1, the figures for the Ki in experiment [1], in experiment [2] and in experiment [3] were 0.062 nM, 431 nM and 423 nM, respectively.

B2: Example 87 (peptide)
peptide: Y[Aib]EGTFISDYSI[αMeL]LD[Orn]K([AEEA-AEEA-γGlu-C18 diacid])HQ[Aib]DFVE[4Pal]LLEAGPSSGAPPPS-NH2
modifications: N-terminus assumed
SMILES: CC[C@H](C)[C@H](NC(=O)[C@H](Cc1ccccc1)NC(=O)[C@@H](NC(=O)CNC(=O)[C@H](CCC(=O)O)NC(=O)C(C)(C)NC(=O)[C@@H](N)Cc1ccc(O)cc1)[C@@H](C)O)C(=O)N[C@@H](CO)C(=O)N[C@@H](CC(=O)O)C(=O)N[C@@H](Cc1ccc(O)cc1)C(=O)N[C@@H](CO)C(=O)N[C@H](C(=O)N[C@@](C)(CC(C)C)C(=O)N[C@@H](CC(C)C)C(=O)N[C@@H](CC(=O)O)C(=O)N[C@@H](CCCN)C(=O)N[C@@H](CCCCNC(=O)COCCOCCNC(=O)COCCOCCNC(=O)CC[C@H](NC(=O)CCCCCCCCCCCCCCCCC(=O)O)C(=O)O)C(=O)N[C@@H](Cc1c[nH]cn1)C(=O)N[C@@H](CCC(N)=O)C(=O)NC(C)(C)C(=O)N[C@@H](CC(=O)O)C(=O)N[C@@H](Cc1ccccc1)C(=O)N[C@H](C(=O)N[C@@H](CCC(=O)O)C(=O)N[C@@H](Cc1ccncc1)C(=O)N[C@@H](CC(C)C)C(=O)N[C@@H](CC(C)C)C(=O)N[C@@H](CCC(=O)O)C(=O)N[C@@H](C)C(=O)NCC(=O)N1CCC[C@H]1C(=O)N[C@@H](CO)C(=O)N[C@@H](CO)C(=O)NCC(=O)N[C@@H](C)C(=O)N1CCC[C@H]1C(=O)N1CCC[C@H]1C(=O)N1CCC[C@H]1C(=O)N[C@@H](CO)C(N)=O)C(C)C)[C@@H](C)CC
As to B2, the inhibitory constant (Ki) came to 0.0538 nM in experiment [1], 576 nM in experiment [2] and 849 nM in experiment [3].
Turning to Y[Aib]EGTFISDYSI[αMeL]LD[Orn]IHQ[Aib]DFVEYK([AEEA-AEEA-γGlu-C20 diacid])LEGGPSSGAPPPS-NH2 [Example 6], the Ki in experiment [1] was 0.104 nM; in experiment [2], 453 nM; in experiment [3] it was 571 nM.

B3: Example 97 (peptide)
peptide: Y[Aib]EGT[αMeF]ISDYSIALDKIHQ[Aib]EFVNYK([AEEA-AEEA-γGlu-C20 diacid])LAGGPSSGAPPPS-NH2
modifications: N-terminus assumed
SMILES: CC[C@H](C)[C@H](NC(=O)[C@H](CO)NC(=O)[C@H](Cc1ccc(O)cc1)NC(=O)[C@H](CC(=O)O)NC(=O)[C@H](CO)NC(=O)[C@@H](NC(=O)[C@](C)(Cc1ccccc1)NC(=O)[C@@H](NC(=O)CNC(=O)[C@H](CCC(=O)O)NC(=O)C(C)(C)NC(=O)[C@@H](N)Cc1ccc(O)cc1)[C@@H](C)O)[C@@H](C)CC)C(=O)N[C@@H](C)C(=O)N[C@@H](CC(C)C)C(=O)N[C@@H](CC(=O)O)C(=O)N[C@@H](CCCCN)C(=O)N[C@H](C(=O)N[C@@H](Cc1c[nH]cn1)C(=O)N[C@@H](CCC(N)=O)C(=O)NC(C)(C)C(=O)N[C@@H](CCC(=O)O)C(=O)N[C@@H](Cc1ccccc1)C(=O)N[C@H](C(=O)N[C@@H](CC(N)=O)C(=O)N[C@@H](Cc1ccc(O)cc1)C(=O)N[C@@H](CCCCNC(=O)COCCOCCNC(=O)COCCOCCNC(=O)CC[C@H](NC(=O)CCCCCCCCCCCCCCCCCCC(=O)O)C(=O)O)C(=O)N[C@@H](CC(C)C)C(=O)N[C@@H](C)C(=O)NCC(=O)NCC(=O)N1CCC[C@H]1C(=O)N[C@@H](CO)C(=O)N[C@@H](CO)C(=O)NCC(=O)N[C@@H](C)C(=O)N1CCC[C@H]1C(=O)N1CCC[C@H]1C(=O)N1CCC[C@H]1C(=O)N[C@@H](CO)C(N)=O)C(C)C)[C@@H](C)CC
On to B3, for which the Ki amounted to 0.0249 nM in experiment [1], 77.5 nM in experiment [2] and 570 nM in experiment [3].

B4: Example 120 (peptide)
peptide: Y[Aib]EGT[αMePhe(2-F)]ISDYSILLDKIHQ[Aib]DFVE[4Pal]K([AEEA-AEEA-γGlu-C20 diacid])LEAGPSSGAPPPS-NH2
modifications: N-terminus assumed
SMILES: CC[C@H](C)[C@H](NC(=O)[C@H](CO)NC(=O)[C@H](Cc1ccc(O)cc1)NC(=O)[C@H](CC(=O)O)NC(=O)[C@H](CO)NC(=O)[C@@H](NC(=O)[C@](C)(Cc1ccccc1F)NC(=O)[C@@H](NC(=O)CNC(=O)[C@H](CCC(=O)O)NC(=O)C(C)(C)NC(=O)[C@@H](N)Cc1ccc(O)cc1)[C@@H](C)O)[C@@H](C)CC)C(=O)N[C@@H](CC(C)C)C(=O)N[C@@H](CC(C)C)C(=O)N[C@@H](CC(=O)O)C(=O)N[C@@H](CCCCN)C(=O)N[C@H](C(=O)N[C@@H](Cc1c[nH]cn1)C(=O)N[C@@H](CCC(N)=O)C(=O)NC(C)(C)C(=O)N[C@@H](CC(=O)O)C(=O)N[C@@H](Cc1ccccc1)C(=O)N[C@H](C(=O)N[C@@H](CCC(=O)O)C(=O)N[C@@H](Cc1ccncc1)C(=O)N[C@@H](CCCCNC(=O)COCCOCCNC(=O)COCCOCCNC(=O)CC[C@H](NC(=O)CCCCCCCCCCCCCCCCCCC(=O)O)C(=O)O)C(=O)N[C@@H](CC(C)C)C(=O)N[C@@H](CCC(=O)O)C(=O)N[C@@H](C)C(=O)NCC(=O)N1CCC[C@H]1C(=O)N[C@@H](CO)C(=O)N[C@@H](CO)C(=O)NCC(=O)N[C@@H](C)C(=O)N1CCC[C@H]1C(=O)N1CCC[C@H]1C(=O)N1CCC[C@H]1C(=O)N[C@@H](CO)C(N)=O)C(C)C)[C@@H](C)CC
On to B4, for which the Ki came to 0.171 nM in experiment [1] and 575 nM in experiment [2].

B5: Example 95 (peptide)
peptide: Y[Aib]EGT[αMePhe(2-F)]ISDYSIALDKIHQ[Aib]EFVNYK([AEEA-AEEA-γGlu-C20 diacid])LEGGPSSGAPPPS-NH2
modifications: N-terminus assumed
SMILES: CC[C@H](C)[C@H](NC(=O)[C@H](CO)NC(=O)[C@H](Cc1ccc(O)cc1)NC(=O)[C@H](CC(=O)O)NC(=O)[C@H](CO)NC(=O)[C@@H](NC(=O)[C@](C)(Cc1ccccc1F)NC(=O)[C@@H](NC(=O)CNC(=O)[C@H](CCC(=O)O)NC(=O)C(C)(C)NC(=O)[C@@H](N)Cc1ccc(O)cc1)[C@@H](C)O)[C@@H](C)CC)C(=O)N[C@@H](C)C(=O)N[C@@H](CC(C)C)C(=O)N[C@@H](CC(=O)O)C(=O)N[C@@H](CCCCN)C(=O)N[C@H](C(=O)N[C@@H](Cc1c[nH]cn1)C(=O)N[C@@H](CCC(N)=O)C(=O)NC(C)(C)C(=O)N[C@@H](CCC(=O)O)C(=O)N[C@@H](Cc1ccccc1)C(=O)N[C@H](C(=O)N[C@@H](CC(N)=O)C(=O)N[C@@H](Cc1ccc(O)cc1)C(=O)N[C@@H](CCCCNC(=O)COCCOCCNC(=O)COCCOCCNC(=O)CC[C@H](NC(=O)CCCCCCCCCCCCCCCCCCC(=O)O)C(=O)O)C(=O)N[C@@H](CC(C)C)C(=O)N[C@@H](CCC(=O)O)C(=O)NCC(=O)NCC(=O)N1CCC[C@H]1C(=O)N[C@@H](CO)C(=O)N[C@@H](CO)C(=O)NCC(=O)N[C@@H](C)C(=O)N1CCC[C@H]1C(=O)N1CCC[C@H]1C(=O)N1CCC[C@H]1C(=O)N[C@@H](CO)C(N)=O)C(C)C)[C@@H](C)CC
Turning to B5, the Ki turned out to be 0.0255 nM in experiment [1], 85 nM in experiment [2] and 832 nM in experiment [3].
